Source: patent US20250122306A1 (SUTRO BIOPHARMA, published 2025)
Substitutions are numbered along the chain they refer to.

B1: SRP2900-E08 (antibody, IgG1, V domains shown)
VH: EVQLVESGGGLVQPGGSLRLSCAASGFTITDYWIHWVRQAPGKGLEWVGYIDPYNGYTYYADSVKGRFTISADTSKNTAYLQMNSLRAEDTAVYYCARDYGSLQVFIDYWGQGTLVTVSS
VL: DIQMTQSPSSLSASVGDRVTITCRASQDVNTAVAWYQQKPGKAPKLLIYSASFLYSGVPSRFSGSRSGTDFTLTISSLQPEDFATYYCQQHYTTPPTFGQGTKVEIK
B2: SRP2900-F10 (antibody, IgG1, V domains shown)
VH: B1 VH with T30S, W33V, Y54S, Y100P, G101Q, Q104F, V105Y, F106P, I107F
VL: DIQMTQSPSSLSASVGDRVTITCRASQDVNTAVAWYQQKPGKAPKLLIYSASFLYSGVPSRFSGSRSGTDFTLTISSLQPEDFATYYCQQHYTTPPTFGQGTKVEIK
B3: SRP2900-F04 (antibody, IgG1, V domains shown)
VH: B1 VH with T30S, Y57F
VL: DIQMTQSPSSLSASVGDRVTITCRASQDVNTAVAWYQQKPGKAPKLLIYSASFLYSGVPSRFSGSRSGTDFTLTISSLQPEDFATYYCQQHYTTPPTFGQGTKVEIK
B4: SRP2900-G06 (antibody, IgG1, V domains shown)
VH: B1 VH with T30S, W33I, Y54S, Y100D, G101Q, Q104S, V105S, F106P, I107F
VL: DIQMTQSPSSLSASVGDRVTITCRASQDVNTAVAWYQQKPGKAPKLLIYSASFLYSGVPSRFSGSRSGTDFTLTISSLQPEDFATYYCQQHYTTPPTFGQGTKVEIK
B5: SRP2900-G09 (antibody, IgG1, V domains shown)
VH: B1 VH with T30S, W33I, Y54S, Y100P, G101Q, Q104T, V105S, F106P, I107F
VL: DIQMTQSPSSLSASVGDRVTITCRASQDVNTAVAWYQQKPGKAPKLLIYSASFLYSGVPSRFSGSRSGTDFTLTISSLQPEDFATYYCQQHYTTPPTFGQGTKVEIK
B6: SRP2900-G10 (antibody, IgG1, V domains shown)
VH: B1 VH with T30P, W33I, Y54S, Y100I, G101Q, L103V, Q104S, V105G, F106E, I107F
VL: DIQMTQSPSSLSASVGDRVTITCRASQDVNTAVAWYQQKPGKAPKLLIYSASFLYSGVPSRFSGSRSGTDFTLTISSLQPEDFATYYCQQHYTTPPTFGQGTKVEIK
B7: SRP2900-E10 (antibody, IgG1, V domains shown)
VH: B1 VH with T30S, Y54A, Q104H, F106Q, I107L
VL: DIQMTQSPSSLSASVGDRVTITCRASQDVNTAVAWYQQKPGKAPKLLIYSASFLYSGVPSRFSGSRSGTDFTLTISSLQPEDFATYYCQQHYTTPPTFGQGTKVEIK
B8: SRP2900-G04 (antibody, IgG1, V domains shown)
VH: B1 VH with I29T, T30R, W33V, Y54S, Y100P, G101Q, Q104S, V105S, F106P, I107F
VL: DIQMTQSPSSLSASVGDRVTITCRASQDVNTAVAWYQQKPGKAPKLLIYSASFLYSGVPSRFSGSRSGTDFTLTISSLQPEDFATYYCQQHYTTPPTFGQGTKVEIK
B9: SRP2900-H01 (antibody, IgG1, V domains shown)
VH: B1 VH with T30F, W33I, Y54S, Y100P, G101Q, L103V, Q104G, V105S, F106E, I107F
VL: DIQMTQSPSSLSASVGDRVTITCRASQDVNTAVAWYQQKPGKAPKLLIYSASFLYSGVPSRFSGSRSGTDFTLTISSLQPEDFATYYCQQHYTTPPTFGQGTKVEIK
B10: SRP2900-F05 (antibody, IgG1, V domains shown)
VH: B1 VH with T30N, W33V, Y54S, Y100D, G101Q, Q104S, V105S, F106P, I107F
VL: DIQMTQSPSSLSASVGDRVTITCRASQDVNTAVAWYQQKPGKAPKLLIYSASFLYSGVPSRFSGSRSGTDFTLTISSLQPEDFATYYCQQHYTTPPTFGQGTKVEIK
B11: SRP2900-H03 (antibody, IgG1, V domains shown)
VH: B1 VH with T30Y, W33I, Y54S, Y60H, Y100P, G101Q, Q104S, V105S, F106P, I107F
VL: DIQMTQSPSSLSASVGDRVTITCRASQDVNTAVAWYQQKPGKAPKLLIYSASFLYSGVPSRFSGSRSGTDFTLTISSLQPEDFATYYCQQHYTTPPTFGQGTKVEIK
B12: SRP2900-H05 (antibody, IgG1, V domains shown)
VH: B1 VH with T30S, W33T, Y54S, Y100I, G101Q, L103V, Q104S, V105G, F106E, I107F
VL: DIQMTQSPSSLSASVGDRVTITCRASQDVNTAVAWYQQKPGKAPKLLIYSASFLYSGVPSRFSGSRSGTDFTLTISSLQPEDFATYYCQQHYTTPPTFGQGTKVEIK
B13: SRP2900-E09 (antibody, IgG1, V domains shown)
VH: B1 VH with T30S, D31Q, Y80H, L103F, Q104R, F106Q, I107L
VL: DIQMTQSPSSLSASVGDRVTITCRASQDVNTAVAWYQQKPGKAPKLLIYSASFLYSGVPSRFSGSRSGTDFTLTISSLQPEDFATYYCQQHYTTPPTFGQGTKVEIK
B14: SRP2900-H02 (antibody, IgG1, V domains shown)
VH: B1 VH with T30F, W33I, Y54S, Y100I, G101Q, L103V, Q104S, V105G, F106E, I107F
VL: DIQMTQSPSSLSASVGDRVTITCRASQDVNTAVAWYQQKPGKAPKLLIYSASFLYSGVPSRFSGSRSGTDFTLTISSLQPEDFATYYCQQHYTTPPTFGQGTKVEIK
B15: SRP2900-G07 (antibody, IgG1, V domains shown)
VH: B1 VH with T30S, W33V, Y54S, Y100P, G101Q, Q104T, V105S, F106P, I107F
VL: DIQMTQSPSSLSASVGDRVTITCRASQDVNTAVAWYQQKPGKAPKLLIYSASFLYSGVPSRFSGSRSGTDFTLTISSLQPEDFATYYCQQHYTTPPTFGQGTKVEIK
B16: SRP2900-A03 (antibody, IgG1, V domains shown)
VH: EVQLVESGGGLVQPGGSLRLSCAASGFTIPSYWIHWVRQAPGKGLEWVGYIDPANGATYYADSVKGRFTISADTSKNTAYLQMNSLRAEDTAVYYCARADYFYVDEYLDYWGQGTLVTVSS
VL: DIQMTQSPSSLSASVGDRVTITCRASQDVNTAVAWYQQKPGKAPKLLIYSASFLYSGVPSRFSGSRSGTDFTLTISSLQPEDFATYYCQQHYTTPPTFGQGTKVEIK
B17: SRP2900-A07 (antibody, IgG1, V domains shown)
VH: B16 VH with P30S, A54Y, A99S, F102Y, Y107F, L108F
VL: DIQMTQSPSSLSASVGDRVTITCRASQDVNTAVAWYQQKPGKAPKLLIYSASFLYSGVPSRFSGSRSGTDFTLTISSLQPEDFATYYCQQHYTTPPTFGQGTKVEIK
B18: SRP2900-A06 (antibody, IgG1, V domains shown)
VH: B16 VH with P30S, A54F, F102Y, L108W
VL: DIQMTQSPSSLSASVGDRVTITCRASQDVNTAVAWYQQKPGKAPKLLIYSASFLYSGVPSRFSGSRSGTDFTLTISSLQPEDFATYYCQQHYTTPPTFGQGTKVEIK
B19: SRP2900-A04 (antibody, IgG1, V domains shown)
VH: B16 VH with P30S, S31G, A54Y, T78A, V104I, L108W
VL: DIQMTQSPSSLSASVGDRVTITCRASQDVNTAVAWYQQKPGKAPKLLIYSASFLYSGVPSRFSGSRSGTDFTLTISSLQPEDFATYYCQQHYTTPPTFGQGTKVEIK
B20: SRP2900-E11 (antibody, IgG1, V domains shown)
VH: EVQLVESGGGLVQPGGSLRLSCAASGFTISYYIIHWVRQAPGKGLEWVGYIDPSNGYTYYADSVKGRFTISADTSKNTAYLQMNSLRAEDTAVYYCARDVQSVSGEFDYWGQGTLVTVSS
VL: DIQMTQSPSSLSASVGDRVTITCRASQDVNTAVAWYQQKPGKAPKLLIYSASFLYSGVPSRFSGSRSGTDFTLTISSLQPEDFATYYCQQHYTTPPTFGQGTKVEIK
B21: SRP2900-H04 (antibody, IgG1, V domains shown)
VH: B20 VH with Y31H, V100I
VL: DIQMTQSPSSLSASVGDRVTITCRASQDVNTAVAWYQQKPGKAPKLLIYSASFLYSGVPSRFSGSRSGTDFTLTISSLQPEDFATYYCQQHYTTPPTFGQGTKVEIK
B22: SRP2900-F07 (antibody, IgG1, V domains shown)
VH: B20 VH with Y31D, I33T, Y60H, V100P, G105S, E106P
VL: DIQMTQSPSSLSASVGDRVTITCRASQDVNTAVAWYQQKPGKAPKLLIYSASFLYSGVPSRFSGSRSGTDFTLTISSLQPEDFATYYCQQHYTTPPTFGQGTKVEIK
B23: SRP2900-G11 (antibody, IgG1, V domains shown)
VH: B20 VH with L18S, S30Y, Y31D, Y59D, V100I
VL: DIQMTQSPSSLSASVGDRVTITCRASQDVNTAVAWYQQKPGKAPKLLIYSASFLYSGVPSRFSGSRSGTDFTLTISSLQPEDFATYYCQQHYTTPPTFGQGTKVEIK
B24: SRP2900-H10 (antibody, IgG1, V domains shown)
VH: B20 VH with Y31D, I33V, Y57F, M83T, V100I
VL: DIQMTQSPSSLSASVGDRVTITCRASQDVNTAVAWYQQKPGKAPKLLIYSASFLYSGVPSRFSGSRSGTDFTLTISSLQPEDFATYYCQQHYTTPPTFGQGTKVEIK
B25: SRP2900-G01 (antibody, IgG1, V domains shown)
VH: B20 VH with S30F, Y31D, I33T, Y59F, M83V, V100I
VL: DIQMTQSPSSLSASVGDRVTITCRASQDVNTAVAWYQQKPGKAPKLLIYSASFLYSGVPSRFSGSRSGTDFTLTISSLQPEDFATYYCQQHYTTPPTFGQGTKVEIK
B26: SRP2900-G08 (antibody, IgG1, V domains shown)
VH: B20 VH with P14L, S30G, Y31G, V100I
VL: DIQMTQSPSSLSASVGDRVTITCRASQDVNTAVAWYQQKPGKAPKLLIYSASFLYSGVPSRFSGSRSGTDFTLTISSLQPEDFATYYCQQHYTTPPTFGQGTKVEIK
B27: SRP2900-H08 (antibody, IgG1, V domains shown)
VH: B20 VH with Y31D, I33V, Y59F, S75P, E89K, V100P, V103L, G105S, E106P
VL: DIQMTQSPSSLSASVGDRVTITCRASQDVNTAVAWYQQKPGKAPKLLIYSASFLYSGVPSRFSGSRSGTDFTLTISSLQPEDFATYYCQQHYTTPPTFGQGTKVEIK
B28: Conjugate 1: 2900-A02 Y180/F404-LP1 (antibody, human IgG1, kappa)
heavy: MEVQLVESGGGLVQPGGSLRLSCAASGFTISGYIIHWVRQAPGKGLEWVGYIDPSNGYTYYADSVKGRFTISADTSKNTAYLQMNSLRAEDTAVYYCARDDQSLSSPFDYWGQGTLVTVSSASTKGPSVFPLAPSSKSTSGGTAALGCLVKDYFPEPVTVSWNSGALTSGVHTFPAVLQSSGLSLSSVVTVPSSSLGTQTYICNVNHKPSNTKVDKKVEPKSCDKTHTCPPCPAPELLGGPSVFLFPPKPKDTLMISRTPEVTCVVVDVSHEDPEVKFNWYVDGVEVHNAKTKPREEQYNSTYRVVSVLTVLHQDWLNGKEYKCKVSNKALPAPIEKTISKAKGQPREPQVYTLPPSREEMTKNQVSLTCLVKGFYPSDIAVEWESNGQPENNYKTTPPVLDSDGSFLYSKLTVDKSRWQQGNVFSCSVMHEALHNHYTQKSLSLSPGK
light: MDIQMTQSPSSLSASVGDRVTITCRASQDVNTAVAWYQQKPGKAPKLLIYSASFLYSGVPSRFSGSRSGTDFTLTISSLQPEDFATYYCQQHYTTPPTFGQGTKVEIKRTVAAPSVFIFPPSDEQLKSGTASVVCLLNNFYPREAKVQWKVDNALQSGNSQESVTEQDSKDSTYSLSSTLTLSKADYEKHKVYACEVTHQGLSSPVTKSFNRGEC
modifications: pAMF at Y180 and F404 (EU), each linked to LP1 (DBCO-Valcit-pAB-hemiasterlin)
B29: Conjugate 3: 2900-A02 Y180/F404/k42-LP1 (antibody, human IgG1, kappa)
heavy: B28 heavy
light: MDIQMTQSPSSLSASVGDRVTITCRASQDVNTAVAWYQQKPGAPKLLIYSASFLYSGVPSRFSGSRSGTDFTLTISSLQPEDFATYYCQQHYTTPPTFGQGTKVEIKRTVAAPSVFIFPPSDEQLKSGTASVVCLLNNFYPREAKVQWKVDNALQSGNSQESVTEQDSKDSTYSLSSTLTLSKADYEKHKVYACEVTHQGLSSPVTKSFNRGEC
modifications: pAMF at K42 linked to LP1; pAMF at Y180 and F404 (EU), each linked to LP1 (DBCO-Valcit-pAB-hemiasterlin)
B30: Conjugate 5: 2900-A02 Y180/F404/k42/E161-LP1 (antibody, human IgG1, kappa)
heavy: B28 heavy
light: MDIQMTQSPSSLSASVGDRVTITCRASQDVNTAVAWYQQKPGAPKLLIYSASFLYSGVPSRFSGSRSGTDFTLTISSLQPEDFATYYCQQHYTTPPTFGQGTKVEIKRTVAAPSVFIFPPSDEQLKSGTASVVCLLNNFYPREAKVQWKVDNALQSGNSQSVTEQDSKDSTYSLSSTLTLSKADYEKHKVYACEVTHQGLSSPVTKSFNRGEC
modifications: pAMF at K42 and E161, each linked to LP1; pAMF at Y180 and F404 (EU), each linked to LP1 (DBCO-Valcit-pAB-hemiasterlin)

biological target: tissue factor reagent of the Tissue Factor Activity Assay Kit (Abcam #ab108906) (UniProt P13726 33-295, limits assumed); assay: cell-based or functional assay
Sequence (P13726 33-295 limits assumed): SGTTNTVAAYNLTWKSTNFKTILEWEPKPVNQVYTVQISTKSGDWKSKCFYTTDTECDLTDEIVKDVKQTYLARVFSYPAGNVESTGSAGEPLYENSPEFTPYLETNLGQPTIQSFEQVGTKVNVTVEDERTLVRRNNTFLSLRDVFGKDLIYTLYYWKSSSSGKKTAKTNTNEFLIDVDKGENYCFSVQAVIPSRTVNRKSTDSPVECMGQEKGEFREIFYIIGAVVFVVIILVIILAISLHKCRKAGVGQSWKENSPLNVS

| FX conversion (% inhibition), 1000 nM antibody [%] | Binder |
| --- | --- |
| 45.8 | B1 |
| 32.5 | B2 |
| 47.3 | B3 |
| 21.4 | B4 |
| 30.4 | B5 |
| 48.7 | B6 |
| 50.7 | B7 |
| 31.2 | B8 |
| 30.5 | B9 |
| 25.1 | B10 |
| 40.8 | B11 |
| 36.2 | B12 |
| 32.2 | B13 |
| 40.4 | B14 |
| 38.3 | B15 |
| 26.3 | B16 |
| 28.4 | B17 |
| 36.8 | B18 |
| 38.6 | B19 |
| 39.9 | B20 |
| 36.3 | B21 |
| 30.3 | B22 |
| 40.9 | B23 |
| 45.4 | B24 |
| 25.1 | B25 |
| 38.9 | B26 |
| 32.2 | B27 |

biological target: human tissue factor on cells (human, UniProt P13726 33-295); assay: cell-based or functional assay
Sequence (P13726 33-295 limits assumed): as above

| Binder | cell killing EC50, HCC1954 (TF+++) [nM] | cell killing EC50, HCC1954, with 0.5 uM unconjugated mAb 36 [nM] | cell killing EC50, NCI-H292 (TF++++) [nM] | cell killing EC50, NCI-H1975 (TF++) [nM] | cell killing EC50, NCI-H1975, with 0.5 uM unconjugated mAb 36 [nM] | cell killing Span, HCC1954 (TF+++) [%] | cell killing Span, NCI-H292 (TF++++) [%] | cell killing Span, NCI-H1975 (TF++) [%] | cell killing EC50, HCC1954, with 0.5 uM unconjugated mAb 39 [nM] | cell killing EC50, NCI-H292, with 0.5 uM unconjugated mAb 39 [nM] |
| --- | --- | --- | --- | --- | --- | --- | --- | --- | --- | --- |
| B28 | 0.064 | > 100 | 0.055 | ~25 | > 100 | 95 | 85 | 62 |  |  |
| B29 | 0.073 |  | 0.048 | ~7 |  | 93 | 82 | 68 | > 100 | > 100 |
| B30 | 0.08 |  | 0.045 | ~4.4 |  | 91 | 87 | 72 |  |  |

same assay, conditions: not given

| Binder | cell killing EC50, NCI-H1975, with 0.5 uM unconjugated mAb 39 [nM] | cell killing EC50, HCC1954, with 0.5 uM unconjugated mAb 38 [nM] | cell killing EC50, NCI-H292, with 0.5 uM unconjugated mAb 38 [nM] | cell killing EC50, NCI-H1975, with 0.5 uM unconjugated mAb 38 [nM] |
| --- | --- | --- | --- | --- |
| B29 | > 100 |  |  |  |
| B30 |  | > 100 | > 100 | > 100 |
